Test results: patent US7807363B2, “Superoxide dismutase-2 expression for glaucoma diagnosis” (Alcon Research, Ltd., priority 2006, dated 2010)

Test system: SOD-2 mRNA in NTM-115 cells
Assay: RT-qPCR of SOD-2 mRNA in NTM-115 TM cells treated with SAA
Type: cell-based
Conditions: rhSAA 40 ug/ml, 24 hr, compared to untreated cells, FIG. 4
Method: SOD-2 mRNA levels in FIG. 1 were measured using real-time quantitative PCR (RT-qPCR). In the RT-qPCR protocol used in one embodiment of the present invention, total RNA was extracted from cultured TM cells or from RNAlater-preserved ocular tissues by using a commercial kit of RNAqueous-4 PCR (Ambion, Austin, Tex.) according to the manufacturer's instructions. RNA quality was assessed by agarose gel electrophoresis or with a 2100 Bioanalyer (Agilent). cDNA was synthesized using MultiScribe reverse transcriptase and random hexamers (PE Applied Biosystems, Foster City, Calif.). Real-time PCR was performed using the ABI Prism 7700 Sequence Detection System according to the manufacturer's instructions (Applied Biosystems, Foster City, Calif.). […] Relative RNA concentrations were determined by comparison to a standard curve generated by different dilutions of TM cell cDNA. […]
In this embodiment, a TM cell line is treated with SAA, which causes overexpression of SOD-2. After addition of the test compound or appropriate vehicle control, the levels of SOD-2 are measured in the test and control replicates via qPCR using the protocol given in the description accompanying FIG. 1. […]

B1: serum amyloid A (protein, UniProt P0DJI8 19-122, looked up)
Serum amyloid A-1 protein: RSFFSFLGEAFDGARDMWRAYSDMREANYIGSDKYFHARGNYDAAKRGPGGAWAAEVITDARENIQRFFGHGAEDSLADQAANEWGRSGKDPNHFRPAGLPEKY
notes: acute-phase reactant protein; recombinant human SAA used to induce SOD-2 overexpression in TM cells
For B1, the “SOD-2 mRNA levels” value was “increased levels of SOD-2 mRNA”.
